Values quoted from earlier work, collected in PMC3686100.

Molecular target: ClpP (Escherichia coli) (UniProt P0A6G7)
Chain of UniProt P0A6G7 (P0A6G7 15-207): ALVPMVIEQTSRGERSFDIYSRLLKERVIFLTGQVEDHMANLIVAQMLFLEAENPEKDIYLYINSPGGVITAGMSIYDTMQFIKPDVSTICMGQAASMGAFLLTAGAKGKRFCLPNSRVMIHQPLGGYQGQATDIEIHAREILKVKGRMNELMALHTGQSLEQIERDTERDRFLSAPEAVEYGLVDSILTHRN

ClpX (from UniProt P0A6H1)
Kd: 0.09 µM
